Experiments:
[1] = target: T1, cytosolic tail of human EpCAM, EpCAM289-314 (Homo sapiens, UniProt P16422); assay: Ang II-induced p65 expression in AT1R-CHO cells transfected with cytosolic tail of EpCAM; assay type: cell-based; details: Ang II 1 μM, co-transfection (FIG. 3J)
T1 construct: corresponds to residues 289-314 of EpCAM plus an initiating Methionine; initiating Methionine (N); expressed in transfected cells; host or cells: AT1R-CHO (CHO stably transfected with human AT1R-Rluc8), transient transfection
T1 sequence (P16422 with tags, fused parts or gaps limits assumed): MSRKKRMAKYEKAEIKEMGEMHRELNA
Protocol: (§1) Adult retinal pigment epithelial (ARPE) cells were cultured in Dulbecco's modified Eagle's medium (DMEM)/F12 endothelial cell growth supplement (ECGS) supplemented media. Chinese Hamster Ovary (CHO) cells were cultured using F12 media (10% FCS with 2 mM glutamine). Human microvascular endothelial cells (HMEC) were cultured in MCDB 131 medium (10% FCS with 10 mM glutamine, EGF and hydrocortisone).
(§2) 100 ng of AT1R-Rluc8 construct was transfected into CHO cells using Lipofectamine 2000 (Thermo). Stable transfectants were selected using G418. AT1R-CHO were then transiently transfected with the IgSF CAM and/or RAGE constructs using Lipofectamine 2000 (Invitrogen) and incubated for 16h.
(§3) After 2 hours of exposure to Ang II (1 μM) cells were placed in Trizol, mRNA extracted and cDNA synthesized. Changes in the gene expression of the NFκB subunit, p65 (RelA) or NFκB-activated target genes (e.g ICAM-1) were estimated by quantitative real-time RT-PCR, performed using the TaqMan system based on real-time detection of accumulated fluorescence (ABI Prism 7700, Perkin-Elmer Inc, PE Biosystems, Foster City, Calif., USA). Gene expression was normalized to 18S mRNA and reported as fold change compared to the level of expression in untreated control mice/cells, which were given an arbitrary value of 1.

full length RAGE1-404 [2] = target: T2, full length RAGE1-404 (Homo sapiens, UniProt Q15109); assay: Ang II-induced p65 expression in AT1R-CHO cells transfected with full length human RAGE; assay type: cell-based; set-up: expressed in transfected cells; host or cells: AT1R-CHO (CHO stably transfected with human AT1R-Rluc8), transient transfection; details: Ang II 1 μM 2 h, co-transfection (FIG. 6A)
Protocol: as §1, §2, §3

full length RAGE1-404 [3] = target: T2, full length RAGE1-404; assay: S100A8/A9-induced PCNA expression in CHO cells transfected with full length RAGE; assay type: cell-based; set-up: expressed in transfected cells; host or cells: CHO cells; details: S100A8/A9 1 μM 2 h, co-transfection (FIG. 4B)
[4] = target: T3, full length murine ALCAM1-583 (Mus musculus, UniProt Q61490); assay: Ang II-induced p65/PCNA expression in AT1R-CHO cells transfected with full length murine ALCAM (qRT-PCR); assay type: cell-based
T3 construct: host or cells: AT1R-CHO (CHO stably transfected with human AT1R-Rluc8), transient transfection; untagged clone in pCMV6
T3 sequence (Q61490 28-583): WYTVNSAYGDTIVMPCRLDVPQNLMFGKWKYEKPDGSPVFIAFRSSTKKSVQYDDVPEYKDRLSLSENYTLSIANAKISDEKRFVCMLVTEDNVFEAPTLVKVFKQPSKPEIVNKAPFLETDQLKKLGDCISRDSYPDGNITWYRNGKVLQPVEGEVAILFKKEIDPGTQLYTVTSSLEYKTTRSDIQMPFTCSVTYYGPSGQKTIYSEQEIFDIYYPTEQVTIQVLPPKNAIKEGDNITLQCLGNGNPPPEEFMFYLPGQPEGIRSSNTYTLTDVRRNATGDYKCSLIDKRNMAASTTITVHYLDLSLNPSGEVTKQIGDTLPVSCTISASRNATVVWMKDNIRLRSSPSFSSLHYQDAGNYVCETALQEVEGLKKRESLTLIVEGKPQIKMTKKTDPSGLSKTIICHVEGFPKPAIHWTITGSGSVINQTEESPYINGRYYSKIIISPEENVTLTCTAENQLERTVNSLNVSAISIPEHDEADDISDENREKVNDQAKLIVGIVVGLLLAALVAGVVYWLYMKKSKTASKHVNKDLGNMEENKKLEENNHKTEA
Protocol: as §1, §2
Oligonucleotides were designed and ordered to generate the ALCAM, BCAM and MCAM intracellular (cytosolic) domains. These included a 5′ NheI site, Kozak sequence and initiating Methionine and then DNA sequences corresponding to ALCAM residues 552-583, BCAM residues 569-628 and MCAM residues 584-637 respectively (Note that as residue 551 of ALCAM is Methionine, the cytosolic tail of ALCAM effectively corresponded to residues 551-583). The pCIneo parental vector was digested with NheI and NotI restriction enzymes, and the DNA of the fragments of the ALCAM, BCAM and MCAM tails/cytosolic domains were ligated into the digested plasmid. After transformation and recovery, colonies were screened and individual clones sequenced. The sequence of the insert was confirmed by DNA sequencing (Micromon, Monash University). A full-length clone of Mouse ALCAM (BC027280) was purchased from Origene. The untagged clone was supplied in the vector pCMV6. […]
as §3, with “Gene expression was normalized to 18S mRNA and reported as fold change compared to the level of expression in untreated control mice/cells, which were given an arbitrary value of 1.” left out

AT1R-CHO cells = assay: p65 expression in AT1R-CHO cells expressing the truncated construct alone; assay type: cell-based, Chinese Hamster; details: AT1R-CHO cells, Ang II 1 μM (FIG. 3A, 5A, 5B)
Protocol: as §1, §2
(§4) Oligonucleotides were designed and ordered to generate the ALCAM, BCAM and MCAM intracellular (cytosolic) domains. These included a 5′ NheI site, Kozak sequence and initiating Methionine and then DNA sequences corresponding to ALCAM residues 552-583, BCAM residues 569-628 and MCAM residues 584-637 respectively (Note that as residue 551 of ALCAM is Methionine, the cytosolic tail of ALCAM effectively corresponded to residues 551-583). The pCIneo parental vector was digested with NheI and NotI restriction enzymes, and the DNA of the fragments of the ALCAM, BCAM and MCAM tails/cytosolic domains were ligated into the digested plasmid. After transformation and recovery, colonies were screened and individual clones sequenced. The sequence of the insert was confirmed by DNA sequencing (Micromon, Monash University). A full-length clone of Mouse ALCAM (BC027280) was purchased from Origene. The untagged clone was supplied in the vector pCMV6. Overlapping DNA sequences were ordered to generate the ALCAM559-580 fragment oligonucleotide. These included a 5′ NheI site, Kozak sequence and initiating Methionine and then DNA sequences corresponding to ALCAM residues 559-580. The pCIneo parental vector was digested with NheI and NotI restriction enzymes, and the ALCAM559-580 construct DNA was ligated into the digested plasmid. After transformation and recovery, colonies were screened and individual clones sequenced.
as §3

[5] = target: T4, human ALCAM (ALCAM1-583, cytosolic tail ALCAM551-583) (Homo sapiens, UniProt Q13740); assay: Ang II-induced p65/PCNA expression in AT1R-CHO cells transfected with human ALCAM (full length or cytosolic tail); assay type: cell-based; details: Ang II 1 μM, co-transfection (FIG. 3G, 1E)
T4 construct: expressed in transfected cells; host or cells: AT1R-CHO (CHO stably transfected with human AT1R-Rluc8), transient transfection
T4 sequence (Q13740 551-583): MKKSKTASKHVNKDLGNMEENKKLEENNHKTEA
Protocol: as §1, §2, §4, §3

[6] = system: human ALCAM (ALCAM1-583, cytosolic tail ALCAM551-583); assay: as above; assay type: cell-based; details: Ang II 1 μM, co-transfection, text: cytosolic tail ALCAM551-583, legend: full length ALCAM1-583
Protocol: as §1, §2, §4, §3

T2 sequence (Q15109 23-404): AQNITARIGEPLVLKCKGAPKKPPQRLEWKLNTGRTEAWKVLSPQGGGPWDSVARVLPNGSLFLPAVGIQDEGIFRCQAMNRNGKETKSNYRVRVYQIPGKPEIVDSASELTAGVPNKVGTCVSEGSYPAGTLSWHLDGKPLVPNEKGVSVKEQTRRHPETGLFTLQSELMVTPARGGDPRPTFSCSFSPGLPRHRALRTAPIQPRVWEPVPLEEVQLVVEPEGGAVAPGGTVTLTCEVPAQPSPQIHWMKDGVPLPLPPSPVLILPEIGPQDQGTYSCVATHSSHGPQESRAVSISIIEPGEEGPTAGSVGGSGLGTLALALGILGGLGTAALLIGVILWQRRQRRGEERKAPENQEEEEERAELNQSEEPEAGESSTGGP

MKHVNKDLGNMEENKKLEENNHK [ALCAM559-580]
induction of p65-NFκB expression by Ang II via transactivation of EpCAM289-314 [1]: prevents induction
induction of p65 expression mediated by full length human RAGE1-404 transactivated by AT1 receptor (full length RAGE1-404 [2]): inhibits
ligand-dependent signalling (PCNA expression) via full length RAGE activated by S100A8/A9 (full length RAGE1-404 [3]): inhibited
induction of p65-NFκB expression by Ang II via AT1R-dependent transactivation of full length murine ALCAM1-583 ([4]; Ang II 1 μM 2 h, co-transfection of the construct, vs pCIneo (FIG. 3B, 5B)): prevents induction
p65-NFκB dependent induction of PCNA expression by Ang II via full length murine ALCAM1-583 ([4]; Ang II 1 μM, co-transfection (FIG. 3C)): prevents induction
induction of p65 expression by Ang II when the construct alone is expressed (AT1R-CHO cells): failed to increase the expression of p65
induction of p65-NFκB expression by Ang II via transactivation of the cytosolic tail of human ALCAM, ALCAM551-583 [5]: prevents induction
induction of p65-NFκB expression by Ang II via transactivation of human ALCAM (FIG. 3E) [6]: prevents induction
p65-NFκB dependent induction of PCNA expression by Ang II via human ALCAM (FIG. 3F) [6]: prevents induction

From patent US20220169693A1, “Screening Assays, Modulators and Modulation of Intracellular Signalling Mediated by Immunoglobulin Superfamily Cell Adhesion Molecules” (Monash University, priority 2018, published 2022)
